In publication PMC4598629:

What was measured:
[1] = target: SOAR, purified wild-type protein (UniProt Q13586); experiment: cross-linking; purified proteins dialysed against PBS, 0.5 mg/ml, disuccinimidyl suberate 0, 0.1 and 1 mM, 30 min, room temperature; SDS-PAGE, Coomassie blue; monomers to dimer
[2] = target: SOAR, purified wild-type protein (UniProt Q13586); experiment: SEC; purified SOAR and SOAR-F394H, ~0.5 mg/ml, Superdex-200 16/60, 200 mM NaCl, 20 mM Mes-NaOH pH 6.5, 2.5 ml/min; calibrated with protein standards; monomers to dimer
[3] = target: SOAR-F394H, purified protein (UniProt Q13586); experiment: cross-linking; purified proteins dialysed against PBS, 0.5 mg/ml, disuccinimidyl suberate 0, 0.1 and 1 mM, 30 min, room temperature; SDS-PAGE, Coomassie blue; monomers to dimer
[4] = target: SOAR-F394H, purified protein (UniProt Q13586); experiment: SEC; purified SOAR and SOAR-F394H, ~0.5 mg/ml, Superdex-200 16/60, 200 mM NaCl, 20 mM Mes-NaOH pH 6.5, 2.5 ml/min; calibrated with protein standards; monomers to dimer

Row | stoichiometry N [1] | stoichiometry N [2] | stoichiometry N [3] | stoichiometry N [4] | Substance
1 | 2 | 2 | – | – | SOAR, purified wild-type protein (from UniProt Q13586 344-442) (domain or fragment)
2 | – | – | 2 | 2 | SOAR-F394H, purified protein (from UniProt Q13586 344-442) (domain or fragment)
